T1: murine OX40 (murine, UniProt P47741 20-211, limits assumed)
T1 sequence (looked up): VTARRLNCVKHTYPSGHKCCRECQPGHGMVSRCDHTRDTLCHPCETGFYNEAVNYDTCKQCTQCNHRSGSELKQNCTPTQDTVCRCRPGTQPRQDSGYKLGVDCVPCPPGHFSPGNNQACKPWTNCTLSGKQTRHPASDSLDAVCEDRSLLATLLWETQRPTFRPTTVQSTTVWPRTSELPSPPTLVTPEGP

T2: OX40 chimera 1548: human OX40 with mouse module 3 and domains 4A and 4B (aa 108-167), on FreeStyle 293-F cells (human; mouse, UniProt P47741 104-165)
T2 construct: domain: module 3, 4A and 4B; Limits derived as for 1544
T2 sequence: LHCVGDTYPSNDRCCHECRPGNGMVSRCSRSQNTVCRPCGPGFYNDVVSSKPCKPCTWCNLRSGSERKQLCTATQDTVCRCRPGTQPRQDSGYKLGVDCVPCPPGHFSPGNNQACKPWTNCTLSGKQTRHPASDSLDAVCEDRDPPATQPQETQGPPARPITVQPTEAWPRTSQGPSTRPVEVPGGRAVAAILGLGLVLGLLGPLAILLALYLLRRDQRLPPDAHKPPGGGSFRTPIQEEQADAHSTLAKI

T3: OX40 chimera 1549: human OX40 with mouse domains 1A and 4B and non-annotated extracellular region (aa 30-65 … (human; mouse, UniProt P47741 26-61; P47741 125-211)
T3 construct: domain: 1A;domain: 4B and non-annotated extracellular region; Limits derived as for 1544
T3 sequence: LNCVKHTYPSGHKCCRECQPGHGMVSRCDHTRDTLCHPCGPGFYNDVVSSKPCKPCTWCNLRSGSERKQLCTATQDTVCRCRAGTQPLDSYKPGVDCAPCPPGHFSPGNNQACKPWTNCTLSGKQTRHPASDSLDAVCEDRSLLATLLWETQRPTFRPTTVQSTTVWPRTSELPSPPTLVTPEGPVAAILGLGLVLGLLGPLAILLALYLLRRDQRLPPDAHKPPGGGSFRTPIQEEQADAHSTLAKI

T4: Human OX40 (R&D systems, #3358_OX) (human, UniProt P43489 29-216)
T4 construct: Bought; Several catalogue numbers are given for it; also called human OX40 (R&D Systems, 3388-OX); OX40-Fc (R&D systems, #3358_OX); not shown: Fc part
T4 sequence: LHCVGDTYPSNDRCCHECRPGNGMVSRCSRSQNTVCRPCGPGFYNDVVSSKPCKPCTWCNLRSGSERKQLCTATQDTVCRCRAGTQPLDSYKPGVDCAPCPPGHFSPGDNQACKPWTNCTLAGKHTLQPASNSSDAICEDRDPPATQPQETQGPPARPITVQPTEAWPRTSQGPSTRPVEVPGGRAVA


Legend:
[1] = target: CTLA-4 (BMS, Orencia) (human, UniProt P16410 38-152); test: cell-based or functional assay
CTLA-4 (BMS, Orencia), sequence (P16410 38-152 limits assumed): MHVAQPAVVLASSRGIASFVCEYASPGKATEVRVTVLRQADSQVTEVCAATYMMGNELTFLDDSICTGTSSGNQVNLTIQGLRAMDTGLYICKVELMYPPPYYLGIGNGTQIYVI

[2] = target: T1, murine OX40; test: ELISA
[3] = target: T5, CD40 (Ancell) (UniProt P25942 21-193); test: ELISA
T5 construct: also called CD40-Fc (Ancell #504-820); not shown: Fc part, not described
T5 sequence (P25942 21-193 limits assumed): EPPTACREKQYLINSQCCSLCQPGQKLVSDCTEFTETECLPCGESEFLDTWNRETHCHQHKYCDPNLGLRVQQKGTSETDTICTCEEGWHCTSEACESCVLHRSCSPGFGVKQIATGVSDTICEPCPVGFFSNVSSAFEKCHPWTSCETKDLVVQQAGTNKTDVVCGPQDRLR

[4] = target: T6, recombinant human CD137-Fc (R&D #838-4B) (human, UniProt Q07011 24-186); test: ELISA
T6 construct: Bought; also called Human CD137 (R&D systems); CD137 (R&D Systems); not shown: Fc part, not described
T6 sequence (Q07011 24-186 limits assumed): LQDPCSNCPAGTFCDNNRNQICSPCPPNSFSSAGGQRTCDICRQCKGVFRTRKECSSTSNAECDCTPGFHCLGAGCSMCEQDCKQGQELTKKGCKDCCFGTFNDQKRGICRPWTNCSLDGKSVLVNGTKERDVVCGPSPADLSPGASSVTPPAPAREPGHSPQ

[5] = target: T2, OX40 chimera 1548: human OX40 with …; test: flow cytometry, 293-F transfectants
Protocol: (§1) The mouse/human chimeras were transiently transfected into FreeStyle 293-F cells (Invitrogen), incubated 48 hours in FreeStyle 293 expression medium (Invitrogen) 37 C, 8% CO₂, 135 rpm. The transfected cells were incubated with human OX40 antibodies, human OX40L (hOX40L, RnD Systems), mouse OX40L (mOX40L, RnD Systems) and controls for 30 min 4° C. and then detected with a-huIgG-PE (Jackson Immunoresearch) 30 min 4° C. Cells were analyzed with FACS Verse (BD Biosciences). Binding to the different chimeric constructs were calculated as relative (mean fluorescence intensity) MFI compared to the binding of the isotype control.

[6] = target: T3, OX40 chimera 1549: human OX40 with …; test: flow cytometry, 293-F transfectants
Protocol: as §1

[7] = target: T5, CD40 (Ancell); test: ELISA, coated CD40-Fc
Protocol: (§2) ELISA plates (Greiner #655074) were coated with 50 μl/well of recombinant human OX40 (R&D #1493-CD), CD40-Fc (Ancell #504-820) or CD137 (R&D #838-4B) diluted to a final concentration of 0.5 μg/ml in PBS for 1 h at 37° C. or overnight at 4° C. Plates were washed with PBS+0.05% TWEEN20 (PBST), followed by block with PBST+1% bovine serum albumin (BSA). Antibody samples were prepared as serial 1/10 dilutions from 10-0.01 μg/ml in PBST+1% BSA and incubated for 1h in room temperature, followed by detection using a horse radish peroxidase-conjugated anti-human kappa light chain antibody (AbD Serotec #STAR127P) and developed using SuperSignal ELISA Pico Chemiluminescent substrate (Pierce ThermoScientific #37069).

[8] = target: CD137 on primary human CD8+ T cells (human, UniProt Q07011 24-255); test: cell-based or functional assay
CD137 on primary human CD8+ T cells, sequence (Q07011 24-255 limits assumed): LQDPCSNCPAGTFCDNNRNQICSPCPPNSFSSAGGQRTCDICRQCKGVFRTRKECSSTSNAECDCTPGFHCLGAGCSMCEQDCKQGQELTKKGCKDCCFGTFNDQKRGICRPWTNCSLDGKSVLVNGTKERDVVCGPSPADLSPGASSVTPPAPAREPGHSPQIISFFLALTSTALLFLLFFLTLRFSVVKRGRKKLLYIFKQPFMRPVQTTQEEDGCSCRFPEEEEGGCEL

[9] = target: T7, CD137 chimera 1554 (1411): human CD137 with mouse domains 3B, 4A and 4B (aa 97-159), on FreeStyle 293-F cells (human; mouse, UniProt P20334 96-159); test: flow cytometry, 293-F transfectants
T7 construct: domain: 3B, 4A and 4B
T7 sequence (P20334 other isoform, or with tags, fused parts or gaps mutant limits assumed): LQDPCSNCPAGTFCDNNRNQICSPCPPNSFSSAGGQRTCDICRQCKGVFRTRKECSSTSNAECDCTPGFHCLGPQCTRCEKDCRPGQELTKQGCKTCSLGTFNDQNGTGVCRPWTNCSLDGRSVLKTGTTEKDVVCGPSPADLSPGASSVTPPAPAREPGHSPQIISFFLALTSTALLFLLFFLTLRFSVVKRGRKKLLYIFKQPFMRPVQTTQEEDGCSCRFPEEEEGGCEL

[10] = target: T8, CD137 chimera 1555 (1412): human CD137 with mouse domains 1 and 4B and region of unknown function (aa 24-46 … (human; mouse, UniProt P20334 24-45; P20334 139-185); test: flow cytometry, 293-F transfectants
T8 construct: domain: 1;domain: 4B and region of unknown function
T8 sequence (P20334 other isoform, or with tags, fused parts or gaps mutant limits assumed): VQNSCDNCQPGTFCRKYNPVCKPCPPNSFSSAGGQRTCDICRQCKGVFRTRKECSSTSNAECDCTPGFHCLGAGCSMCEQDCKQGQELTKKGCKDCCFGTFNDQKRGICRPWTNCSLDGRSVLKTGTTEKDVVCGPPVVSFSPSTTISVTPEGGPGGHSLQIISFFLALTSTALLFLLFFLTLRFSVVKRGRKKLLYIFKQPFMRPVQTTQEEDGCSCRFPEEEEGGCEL

[11] = target: T4, Human OX40 (R&D systems, #3358_OX); test: ELISA, coated recombinant human OX40
Protocol: as §2

[12] = target: extracellular part of OX40 from Macaca mulatta fused to the transmembrane and intracellular part of hCD40, on … (Macaca mulatta; human, UniProt A0A5F7ZKD5 21-541; P25942 194-277); test: flow cytometry, macOX40-HEK cells; 95% confidence interval
extracellular part of OX40 from Macaca mulatta fused to the transmembrane and intracellular part of hCD40, on …, sequence (P25942 other isoform, or with tags, fused parts or gaps): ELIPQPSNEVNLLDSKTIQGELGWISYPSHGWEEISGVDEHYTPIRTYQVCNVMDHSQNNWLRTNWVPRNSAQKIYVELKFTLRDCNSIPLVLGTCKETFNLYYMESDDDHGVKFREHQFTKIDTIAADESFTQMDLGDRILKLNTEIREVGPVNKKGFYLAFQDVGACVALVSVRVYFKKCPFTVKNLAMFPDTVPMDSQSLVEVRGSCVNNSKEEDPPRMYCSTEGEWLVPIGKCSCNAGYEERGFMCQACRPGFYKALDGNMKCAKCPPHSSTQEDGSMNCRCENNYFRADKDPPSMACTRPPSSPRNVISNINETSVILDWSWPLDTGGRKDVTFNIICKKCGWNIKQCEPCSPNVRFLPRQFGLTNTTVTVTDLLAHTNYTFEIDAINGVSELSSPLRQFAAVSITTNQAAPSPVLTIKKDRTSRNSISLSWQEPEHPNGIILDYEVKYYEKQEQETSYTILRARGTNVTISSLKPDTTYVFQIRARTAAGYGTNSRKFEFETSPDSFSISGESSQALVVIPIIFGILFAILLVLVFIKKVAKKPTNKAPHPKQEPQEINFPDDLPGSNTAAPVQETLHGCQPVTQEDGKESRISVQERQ
Protocol: For the assay, the transfected cells were incubated with the test antibodies and controls for 30 min at 4° C. and then detected with a-huIgG-PE (Jackson Immunoresearch) 30 min 4° C. Cells were analyzed by flow cytometry with FACS Verse (BD Biosciences).

| binding result [2] | binding result [3] | binding result [4] | relative MFI vs isotype control [5] | relative MFI vs isotype control [6] | binding result [7] | Max IFN-γ [8] [pg/mL] | Mean IFN-γ [8] [pg/mL] | Min IFN-γ [8] [pg/mL] | binding result [11] | Binder | other results |
| --- | --- | --- | --- | --- | --- | --- | --- | --- | --- | --- | --- |
| – | – | – | – | – | – | – | – | – | – | bispecific molecule 1526/1585 (OX40 x CTLA-4) (bispecific antibody, human IgG1, kappa) heavy: not shown light: DIQMTQSPSSLSASVGDRVTITCRASQSISSYLNWYQQKPGKAPKLLIYAASSLQSGVPSRFSGSGSGTDFTLTISSLQPEDFATYYCQQYGSDSLLTFGQGTKLEIKRTVAAPSVFIFPPSDEQLKSGTASVVCLLNNFYPREAKVQWKVDNALQSGNSQESVTEQDSKDSTYSLSSTLTLSKADYEKHKVYACEVTHQGLSSPVTKSFNRGECSGGGGSGGGGSAPLKIQAYFNETADLPCQFANSQNLSLSELVVFWQDQENLVLNEVYLGKERFDSVDSKYMGRTSFDSDSWTLRLHNLQIKDKGRYQCIIHHKKPTGMINIHQMNSELSVLA | Mean IL-2 level (pg/ml) induced at 1.5 nM [1]: 3200 pg/mL |
| no binding | no binding | no binding | 17.2 | 10.6 | – | – | – | – | – | anti-OX40 antibody 1514/1515 (antibody, V domains shown, Tested as IgG) VH: EVQLLESGGGLVQPGGSLRLSCAASGFTFGYYYMSWVRQAPGKGLEWVSGISSYGSYTYYADSVKGRFTISRDNSKNTLYLQMNSLRAEDTAVYYCARSGYSNWANSFDYWGQGTLVTVSS VL: DIQMTQSPSSLSASVGDRVTITCRASQSISSYLNWYQQKPGKAPKLLIYAASSLQSGVPSRFSGSGSGTDFTLTISSLQPEDFATYYCQQGDYTLFTFGQGTKLEIK | – |
| – | – | – | – | – | no binding (tested: 10 µg/ml) | 153000 | 64400 | 13100 | no binding (tested: 10 µg/ml) | anti-CD137 antibody 1204/1205 (antibody, IgG1, V domains shown, Produced as IgG; also called 1204-bio) VH: EVQLLESGGGLVQPGGSLRLSCAASGFTFSSYYMGWVRQAPGKGLEWVSGIGSYYGYTGYADSVKGRFTISRDNSKNTLYLQMNSLRAEDTAVYYCARAYYDYNYYYAYFDYWGQGTLVTVSS VL: DIQMTQSPSSLSASVGDRVTITCRASQSISSYLNWYQQKPGKAPKLLIYAASSLQSGVPSRFSGSGSGTDFTLTISSLQPEDFATYYCQQSVPHYPFTFGQGTKLEIK | relative binding (MFI sample/isotype control, normalised to full-length human CD137) [9]: 0.73; relative binding (MFI sample/isotype control, normalised to full-length human CD137) [10]: 0.28 |
| – | – | – | – | – | no binding (tested: 10 µg/ml) | 32200 | 15100 | 4160 | no binding (tested: 10 µg/ml) | anti-CD137 antibody 1626/1627 (antibody, IgG1, V domains shown, Produced as IgG; also called 1626-bio) VH: EVQLLESGGGLVQPGGSLRLSCAASGFTFGGYSMYWVRQAPGKGLEWVSSIGGYYYSTYYADSVKGRFTISRDNSKNTLYLQMNSLRAEDTAVYYCARSYYGSIDYWGQGTLVTVSS VL: DIQMTQSPSSLSASVGDRVTITCRASQSISSYLNWYQQKPGKAPKLLIYAASSLQSGVPSRFSGSGSGTDFTLTISSLQPEDFATYYCQQGTGYGPLTFGQGTKLEIK | – |
| no binding | no binding | no binding | 15.8 | 11.3 | – | – | – | – | – | anti-OX40 antibody 1166/1167 (antibody, V domains shown, Tested as IgG) VH: EVQLLESGGGLVQPGGSLRLSCAASGFTFGGYYMSWVRQAPGKGLEWVSAISGSGGSTYYADSVKGRFTISRDNSKNTLYLQMNSLRAEDTAVYYCARYDYASMDYWGQGTLVTVSS VL: DIQMTQSPSSLSASVGDRVTITCRASQSISSYLNWYQQKPGKAPKLLIYAASSLQSGVPSRFSGSGSGTDFTLTISSLQPEDFATYYCQQYYWYGLSTFGQGTKLEIK | EC50 [12]: 0.16 to 0.242 µg/mL |
| no binding | no binding | no binding | 20.3 | 12.1 | – | – | – | – | – | anti-OX40 antibody 1170/1171 (antibody, V domains shown, Tested as IgG) VH: EVQLLESGGGLVQPGGSLRLSCAASGFTFGGYYMSWVRQAPGKGLEWVSYIPGSGGSTYYADSVKGRFTISRDNSKNTLYLQMNSLRAEDTAVYYCARYDYYWMDYWGQGTLVTVSS VL: DIQMTQSPSSLSASVGDRVTITCRASQSISSYLNWYQQKPGKAPKLLIYAASSLQSGVPSRFSGSGSGTDFTLTISSLQPEDFATYYCQQGHGSYPHTFGQGTKLEIK | – |
| – | – | – | – | – | no binding (tested: 10 µg/ml) | 122000 | 51800 | 8210 | no binding (tested: 10 µg/ml) | anti-CD137 antibody 1214/1215 (antibody, IgG1, V domains shown, Produced as IgG; also called 1214-bio) VH: EVQLLESGGGLVQPGGSLRLSCAASGFTFSSYAMSWVRQAPGKGLEWVSSIGSGGGYTGYADSVKGRFTISRDNSKNTLYLQMNSLRAEDTAVYYCARVGHPFDYWGQGTLVTVSS VL: DIQMTQSPSSLSASVGDRVTITCRASQSISSYLNWYQQKPGKAPKLLIYAASSLQSGVPSRFSGSGSGTDFTLTISSLQPEDFATYYCQQDAYPHTFGQGTKLEIK | – |
| – | – | – | – | – | no binding (tested: 10 µg/ml) | 123000 | 52400 | 7730 | no binding (tested: 10 µg/ml) | anti-CD137 antibody 1620/1621 (antibody, IgG1, V domains shown, Produced as IgG) VH: EVQLLESGGGLVQPGGSLRLSCAASGFTFSGYYMYWVRQAPGKGLEWVSGISSSGSYTYYADSVKGRFTISRDNSKNTLYLQMNSLRAEDTAVYYCARSVGPYFDYWGQGTLVTVSS VL: DIQMTQSPSSLSASVGDRVTITCRASQSISSYLNWYQQKPGKAPKLLIYAASSLQSGVPSRFSGSGSGTDFTLTISSLQPEDFATYYCQQGVGPYTFGQGTKLEIK | – |
